Assay results as given in patent US20170326249A1 (Bristol-Myers Squibb, published 2017).

B1: Antibody C (antibody, human IgG1, kappa, V domains shown)
VH: EVQLVQSGAEVKKPGESLKISCKGSGYSFTRYWIAWVRQMPGKGLEWMGIIFPGDSHTGYSPSFQGQVTISADRSISTAYLQWSSLKASDTAMYYCARTREGYFDYWGQGTLVTVSS
VL: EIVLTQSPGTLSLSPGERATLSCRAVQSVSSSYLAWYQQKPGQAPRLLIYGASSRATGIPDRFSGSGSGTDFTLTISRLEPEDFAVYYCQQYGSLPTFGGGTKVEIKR
notes: Variable-region variant of GPC3.1, IgG1/kappa; also called variant antibody C
B2: Antibody A (antibody, human IgG1, kappa, V domains shown)
VH: EVQLVQSGAEVKKPGESLKISCKGSGYSFTSYWIAWVRQMPGKGLEWMGIIFPGDSHTGYSPSFQGQVTISADRSIRTAYLQWSSLKASDTAMYYCARTRQGYFDYWGQGTLVTVSS
VL: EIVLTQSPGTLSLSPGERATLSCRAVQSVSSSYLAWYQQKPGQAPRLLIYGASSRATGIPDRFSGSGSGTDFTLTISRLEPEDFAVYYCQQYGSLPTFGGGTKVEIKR
notes: Variable-region variant of GPC3.1, IgG1/kappa; also called variant antibody A
B3: Antibody B (antibody, human IgG1, kappa, V domains shown)
VH: EVQLVQSGAEVKKPGESLKISCKGSGYSFTRYWIAWVRQMPGKGLEWMGIIFPGDSHTGYSPSFRGQVTISADKSISTAYLQWSSLKASDTAMYYCARTREGYFDYWGQGTLVTVSS
VL: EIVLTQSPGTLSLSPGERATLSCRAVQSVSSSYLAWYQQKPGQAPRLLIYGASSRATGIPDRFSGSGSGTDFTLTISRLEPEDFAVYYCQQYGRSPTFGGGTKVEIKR
notes: Variable-region variant of GPC3.1, IgG1/kappa; also called variant antibody B

Target: T1, Glypican-3 (UniProt P51654 25-559, limits assumed)
T1 construct: also called GPC3
Test: Biacore (SPR)

In order of rising Kd:
1. B1  0.9 nM
2. B3  2.2 nM
3. B2  2.7 nM

In order of falling koff:
1. B3  0.0036 s⁻¹
2. B2  0.0029 s⁻¹
3. B1  0.0016 s⁻¹

In order of rising kon:
1. B2  1.1e+06 M⁻¹ s⁻¹
2. B1  1.7e+06 M⁻¹ s⁻¹
3. B3  1.7e+06 M⁻¹ s⁻¹
